Data from patent US20260098072A1, “METHODS OF STIMULATING APPETITE AND/OR INCREASING BODY WEIGHT USING NON-NATURALLY OCCURRING MELANOCORTIN RECEPTOR ANTAGONIST ANALOGS” (Endevica Bio, Inc., priority 2022, published 2026).
Values joined by “and” are separate entries in the source; they are usually repeats but may differ in a detail not shown here. Equal entries are not always repeated. Positions of bridges follow the written chain, without caps; N, C: chain ends. Non-standard residues stand in square brackets, D forms with d. Residues, ends and D or L forms follow the SMILES beside them. No end group written: not given here. d2Nal = N[C@H](Cc1ccc2ccccc2c1)C(=O)O; Hyp = O=C(O)[C@@H]1C[C@@H](O)CN1; Nle = CCCC[C@H](N)C(=O)O

B1: D3 (peptide)
peptide: Ac-[Nle]D[Hyp][d2Nal]RWK[dV][dP]-NH2
modifications: lactam 2-7
SMILES: CCCC[C@H](NC(C)=O)C(=O)N[C@H]1CC(=O)NCCCC[C@@H](C(=O)N[C@@H](C(=O)N2CCC[C@@H]2C(N)=O)C(C)C)NC(=O)[C@H](Cc2c[nH]c3ccccc23)NC(=O)[C@H](CCCNC(=N)N)NC(=O)[C@@H](Cc2ccc3ccccc3c2)NC(=O)[C@@H]2C[C@@H](O)CN2C1=O
B2: B6 (peptide)
peptide: VPFFRWVP
B3: C7 (peptide)
peptide: LDPWRWKVP
B4: C9 (peptide)
peptide: VDPWRWKVP
B5: B9 (peptide)
peptide: VDPFFRWKVP
B6: B7 (peptide)
peptide: LDPFFRWKVP
B7: C8 (peptide)
peptide: IDPWRWKVP
B8: B5 (peptide)
peptide: IPFFRWVP
B9: C1 (peptide)
peptide: Ac-[Nle]DPWRWK[dV][dP]-NH2
modifications: lactam 2-7
SMILES: CCCC[C@H](NC(C)=O)C(=O)N[C@H]1CC(=O)NCCCC[C@@H](C(=O)N[C@@H](C(=O)N2CCC[C@@H]2C(N)=O)C(C)C)NC(=O)[C@H](Cc2c[nH]c3ccccc23)NC(=O)[C@H](CCCNC(=N)N)NC(=O)[C@H](Cc2c[nH]c3ccccc23)NC(=O)[C@@H]2CCCN2C1=O
B10: C4 (peptide)
peptide: LPWRWVP
B11: D2 (peptide)
peptide: Ac-[Nle]DH[d2Nal]RWPK[dV][dP]-NH2
modifications: lactam 2-8
SMILES: CCCC[C@H](NC(C)=O)C(=O)N[C@H]1CC(=O)NCCCC[C@@H](C(=O)N[C@@H](C(=O)N2CCC[C@@H]2C(N)=O)C(C)C)NC(=O)[C@@H]2CCCN2C(=O)[C@H](Cc2c[nH]c3ccccc23)NC(=O)[C@H](CCCNC(=N)N)NC(=O)[C@@H](Cc2ccc3ccccc3c2)NC(=O)[C@H](Cc2c[nH]cn2)NC1=O
B12: D5 (peptide)
peptide: Ac-[Nle]DPH[d2Nal]RWK[dP][dV]-NH2
modifications: lactam 2-8
SMILES: CCCC[C@H](NC(C)=O)C(=O)N[C@H]1CC(=O)NCCCC[C@@H](C(=O)N2CCC[C@@H]2C(=O)N[C@@H](C(N)=O)C(C)C)NC(=O)[C@H](Cc2c[nH]c3ccccc23)NC(=O)[C@H](CCCNC(=N)N)NC(=O)[C@@H](Cc2ccc3ccccc3c2)NC(=O)[C@H](Cc2c[nH]cn2)NC(=O)[C@@H]2CCCN2C1=O
B13: C3 (peptide)
peptide: LDPWRWKVP
modifications: lactam 2-7
B14: C5 (peptide)
peptide: IPWRWVP
B15: B8 (peptide)
peptide: IDPFFRWKVP
B16: C6 (peptide)
peptide: VPWRWVP
B17: D1 (peptide)
peptide: Ac-[Nle]DPH[d2Nal]RWK[dV][dP]-NH2
modifications: lactam 2-8
SMILES: CCCC[C@H](NC(C)=O)C(=O)N[C@H]1CC(=O)NCCCC[C@@H](C(=O)N[C@@H](C(=O)N2CCC[C@@H]2C(N)=O)C(C)C)NC(=O)[C@H](Cc2c[nH]c3ccccc23)NC(=O)[C@H](CCCNC(=N)N)NC(=O)[C@@H](Cc2ccc3ccccc3c2)NC(=O)[C@H](Cc2c[nH]cn2)NC(=O)[C@@H]2CCCN2C1=O
B18: A2 (peptide)
peptide: Ac-[Nle]P[d2Nal]RW[dV][dP]-NH2
SMILES: CCCC[C@H](NC(C)=O)C(=O)N1CCC[C@H]1C(=O)N[C@H](Cc1ccc2ccccc2c1)C(=O)N[C@@H](CCCNC(=N)N)C(=O)N[C@@H](Cc1c[nH]c2ccccc12)C(=O)N[C@@H](C(=O)N1CCC[C@@H]1C(N)=O)C(C)C
B19: D4 (peptide)
peptide: Ac-[Nle]D[Hyp][d2Nal]RWPK[dV][dP]-NH2
modifications: lactam 2-8
SMILES: CCCC[C@H](NC(C)=O)C(=O)N[C@H]1CC(=O)NCCCC[C@@H](C(=O)N[C@@H](C(=O)N2CCC[C@@H]2C(N)=O)C(C)C)NC(=O)[C@@H]2CCCN2C(=O)[C@H](Cc2c[nH]c3ccccc23)NC(=O)[C@H](CCCNC(=N)N)NC(=O)[C@@H](Cc2ccc3ccccc3c2)NC(=O)[C@@H]2C[C@@H](O)CN2C1=O
B20: C2 (peptide)
peptide: Ac-LDPWRWKVP-NH2
modifications: lactam 2-7
SMILES: CC(=O)N[C@@H](CC(C)C)C(=O)N[C@H]1CC(=O)NCCCC[C@@H](C(=O)N[C@H](C(=O)N2CCC[C@H]2C(N)=O)C(C)C)NC(=O)[C@H](Cc2c[nH]c3ccccc23)NC(=O)[C@H](CCCNC(=N)N)NC(=O)[C@H](Cc2c[nH]c3ccccc23)NC(=O)[C@@H]2CCCN2C1=O
B21: A1 (peptide)
peptide: Ac-[Nle]DP[d2Nal]RWK[dV][dP]-NH2
SMILES: CCCC[C@H](NC(C)=O)C(=O)N[C@@H](CC(=O)O)C(=O)N1CCC[C@H]1C(=O)N[C@H](Cc1ccc2ccccc2c1)C(=O)N[C@@H](CCCNC(=N)N)C(=O)N[C@@H](Cc1c[nH]c2ccccc12)C(=O)N[C@@H](CCCCN)C(=O)N[C@@H](C(=O)N1CCC[C@@H]1C(N)=O)C(C)C

Tests used:
[1] = biological target: T1, human MC3R (Homo sapiens, UniProt P41968); assay: cAMP accumulation assay (HTRF), antagonist activity at MC3R; type: cell-based; conditions: for Hill Coefficient / Top (%): dose-response fit, MC3R
T1 construct: expressed in transfected cells; host or cells: HEK293/CRE-luc/MC3R
Experimental: (§1) The antagonist activity of exemplary non-naturally occurring melanocortin analogs (SEQ ID NOs: 3, 4, 6, 9-11, 14, 15, and 291-309) at the melanocortin 3 receptor (MC3R) and melanocortin 4 (MC4R) receptor was measured via cAMP accumulation assay, according to the following procedure.
(§2) Recombinant cell lines shown in Table 1 were stimulated with melanocortin receptor antagonists and evaluated for cyclic adenosine monophosphate (cAMP) levels as a measurement of receptor activation. cAMP levels were quantified using Homogeneous Time-Resolved Fluorescence (HTRF). The stimulation and CAMP measurement were performed sequentially. First, the compound stimulated the G-protein coupled receptor (GPCR) which then induced downstream signaling, which was measured soon after. Cell lines and stimulated receptors used are detailed in Table 1.
(§3) Twenty-seven exemplary synthetic peptides were tested for antagonist activity at the human MC3R and MC4R at concentrations ranging from 0.1 nM to 1,000 nM. After stimulation, the level of cyclic adenosine monophosphate (CAMP) in each well was quantified via Homogenous Time-Resolved Fluorescence (HTRF) as a measurement of receptor activity. Dose-response curves and estimated IC50 values were then obtained for each antagonist peptide against the MC3R and MC4R. HS024 (TFA) and was used as a positive control for the antagonist activity of MC3R (FIG. 1A) and MC4R (FIG. 1B).

[2] = biological target: T2, human MC4R (Homo sapiens, UniProt P32245); assay: cAMP accumulation assay (HTRF), antagonist activity at MC4R; type: cell-based; conditions: for Hill Coefficient / Top (%): dose-response fit, MC4R
T2 construct: expressed in transfected cells; host or cells: HEK293/MC4R/CRE-GFP
Experimental: as §1, §2, §3

[3] = biological target: human melanocortin 3 receptor (MC3R) (human, UniProt P41968 1-323); assay: cell-based or functional assay
[4] = biological target: human melanocortin 4 receptor (MC4R) (human, UniProt P32245 1-332); assay: cell-based or functional assay
Sequence of human melanocortin 4 receptor (MC4R) (P32245 whole entry): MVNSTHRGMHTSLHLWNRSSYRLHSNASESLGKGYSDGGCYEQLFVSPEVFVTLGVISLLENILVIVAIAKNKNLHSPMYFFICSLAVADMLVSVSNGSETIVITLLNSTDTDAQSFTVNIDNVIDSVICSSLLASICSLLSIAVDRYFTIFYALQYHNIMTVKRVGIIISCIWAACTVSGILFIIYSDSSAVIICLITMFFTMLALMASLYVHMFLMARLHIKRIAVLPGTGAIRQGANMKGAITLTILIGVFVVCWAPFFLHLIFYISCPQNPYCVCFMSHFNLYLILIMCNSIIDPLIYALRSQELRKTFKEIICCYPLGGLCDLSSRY

T2 sequence (P32245 whole entry): as above
T1 sequence (P41968 whole entry): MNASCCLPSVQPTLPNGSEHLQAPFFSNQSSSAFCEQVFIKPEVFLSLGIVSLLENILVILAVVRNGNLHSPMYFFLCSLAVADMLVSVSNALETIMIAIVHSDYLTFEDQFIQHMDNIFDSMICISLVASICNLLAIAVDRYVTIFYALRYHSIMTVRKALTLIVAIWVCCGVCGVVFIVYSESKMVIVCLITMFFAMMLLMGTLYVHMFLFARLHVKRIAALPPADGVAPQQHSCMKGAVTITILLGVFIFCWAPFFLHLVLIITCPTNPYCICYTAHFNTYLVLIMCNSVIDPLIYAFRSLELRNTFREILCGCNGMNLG
Sequence of human melanocortin 3 receptor (MC3R) (P41968 whole entry): as above

Molecule	Max Activation % [3] [%]	Max Activation % [4] [%]	other results
CCCC[C@H](NC(C)=O)C(=O)N[C@H]1CC(=O)NCCCC[C@@H](C(=O)N[C@@H](C(=O)N2CCC[C@@H]2C(N)=O)C(C)C)NC(=O)[C@H](Cc2c[nH]c3ccccc23)NC(=O)[C@H](CCCNC(=N)N)NC(=O)[C@@H](Cc2ccc3ccccc3c2)NC(=O)[C@@H]2C[C@@H](O)CN2C1=O [Peptide D3, Ac-Nle-c(Asp-Hyp-Dnal(2′)-Arg-Trp-Lys)-Dval-Dpro-NH2] (Ac-[Nle]D[Hyp][d2Nal]RWK[dV][dP]-NH2; lactam 2-7)	–	–	Emax ([1]; HEK293/CRE-luc/MC3R, 0.1 nM to 1,000 nM, read-out: Max Activation %): 111%; IC50 ([1]; HEK293/CRE-luc/MC3R, estimated from dose-response curve): < 10 µM and 0.087 µM; Hill Coefficient [1]: 0.98; Top (%) [1]: 113.20%; Emax ([2]; HEK293, HEK293/MC4R/CRE-GFP, 0.1 nM to 1,000 nM, read-out: Max Activation %): 117%; IC50 ([2]; HEK293/MC4R/CRE-GFP, estimated from dose-response curve): < 10 µM and 0.0406 µM; Hill Coefficient [2]: 0.80; Top (%) [2]: 119.03%
LPFFRWVP [Peptide B4]	–	–	Hill Coefficient [1]: 0.36; Top (%) [1]: 29.62%; Hill Coefficient [2]: 1.90; Top (%) [2]: 16.60%
VDPWRWKVP [Peptide C9]	–	–	Hill Coefficient [1]: 2.95; Top (%) [1]: −64.92%; Hill Coefficient [2]: 0.64; Top (%) [2]: 219.95%
IDPWRWKVP [Peptide C8]	–	–	Hill Coefficient [1]: −57.42; Top (%) [1]: 0.80%; Hill Coefficient [2]: 10.57
B1	111	117	IC50 (cAMP by HTRF, antagonist dose-response) [3]: 0.087 µM; IC50 (cAMP by HTRF, antagonist dose-response) [4]: 0.0406 µM
B2	5	15.4	–
B3	0.16	5.86	–
B4	1.24	5.89	–
B5	1.08	-3.71	–
B6	1.43	-2.96	–
B7	0.47	3.02	–
B8	0.14	-0.16	–
B9	4.55	11.1	–
B10	-0.32	-6.88	–
B11	31.8	17.6	–
B12	24.6	41.5	IC50 (cAMP by HTRF, antagonist dose-response) [3]: > 10 µM
B13	3.32	8.07	–
B14	-0.49	2.47	–
B15	4.86	13.6	–
B16	-0.8	6.41	–
B17	74.5	49.4	IC50 (cAMP by HTRF, antagonist dose-response) [3]: 5.81 µM; IC50 (cAMP by HTRF, antagonist dose-response) [4]: > 10 µM
B18	7.92	–	–
B19	50.1	21	IC50 (cAMP by HTRF, antagonist dose-response) [3]: > 10 µM
B20	0.27	-3.3	–
B21	84.4	79.3	IC50 (cAMP by HTRF, antagonist dose-response) [3]: 3.66 µM; IC50 (cAMP by HTRF, antagonist dose-response) [4]: 3.61 µM
